Measured values taken from the Human Domainome abundance scans (Beltran et al. 2025).
± gives the uncertainty stated by the source.

B1: Connector enhancer of kinase suppressor of ras 2, residues 9 to 71; numbered along this chain, Q8WXI2 (parent)
chain: SKWSPSQVVDWMKGLDDCLQQYIKNFEREKISGDQLLRITHQELEDLGVSRIGHQELILEAVD

Variants of: B1
Test: abundance fitness (aPCA) (normalised: wild type 0, dead -1); higher = more abundant; growth selection in yeast, the domain comes from the species named
Conditions: Homo sapiens

Abundance fitness, by site and new letter:
Q7: Y -0.777 ± 0.068
V8: C -0.716 ± 0.057, D -0.783 ± 0.085, F -0.861 ± 0.051, G -0.851 ± 0.049, H -0.878 ± 0.052, I -0.524 ± 0.038, K -0.88 ± 0.064, L -0.775 ± 0.044, M -0.771 ± 0.058, N -0.973 ± 0.069, P -0.773 ± 0.052, Q -0.947 ± 0.092, R -0.872 ± 0.06, S -0.749 ± 0.04, T -0.523 ± 0.033, W -1.05 ± 0.083, Y -1.01 ± 0.086
V9: A -0.064 ± 0.028, C -0.054 ± 0.039, D -0.66 ± 0.052, E -0.374 ± 0.036, F -0.764 ± 0.081, G -0.128 ± 0.031, H -0.774 ± 0.051, I -0.035 ± 0.03, K -0.334 ± 0.044, M -0.159 ± 0.038, N -0.562 ± 0.061, P -0.888 ± 0.073, Q -0.217 ± 0.044, R -0.268 ± 0.025, S -0.207 ± 0.027, T -0.11 ± 0.035, W -0.863 ± 0.049, Y -0.757 ± 0.076
D10: E 0.096 ± 0.029, F -0.34 ± 0.041, G -0.122 ± 0.035, I -0.258 ± 0.042, K -0.161 ± 0.039, L -0.256 ± 0.017, M -0.169 ± 0.031, N -0.087 ± 0.036, P -0.929 ± 0.056, R -0.176 ± 0.031, S -0.127 ± 0.034, T -0.18 ± 0.027, V -0.327 ± 0.028
W11: A -0.95 ± 0.051, C -0.834 ± 0.072, D -0.65 ± 0.055, E -0.59 ± 0.06, F -0.333 ± 0.048, G -0.675 ± 0.04, H -0.738 ± 0.049, I -1 ± 0.11, K -0.564 ± 0.046, L -0.896 ± 0.041, M -0.943 ± 0.058, N -0.674 ± 0.086, P -0.854 ± 0.066, Q -0.681 ± 0.054, R -0.716 ± 0.024, S -0.782 ± 0.036, V -0.749 ± 0.038, Y -0.425 ± 0.047
M12: A -0.658 ± 0.037, D -0.706 ± 0.05, F -0.096 ± 0.035, G -0.757 ± 0.037, H -0.766 ± 0.048, I -0.165 ± 0.031, K -0.827 ± 0.095, L -0.188 ± 0.028, N -1 ± 0.087, P -1 ± 0.068, Q -1.06 ± 0.087, R -1.01 ± 0.052, S -0.8 ± 0.051, T -0.849 ± 0.072, V -0.266 ± 0.024, Y -0.386 ± 0.051
K13: A -0.196 ± 0.03, C -0.356 ± 0.041, E -0.352 ± 0.046, F -0.375 ± 0.045, H -0.13 ± 0.065, I -0.422 ± 0.052, L -0.23 ± 0.024, M -0.103 ± 0.029, N -0.212 ± 0.055, P -0.895 ± 0.075, R -0.003 ± 0.028, S -0.179 ± 0.027, T -0.237 ± 0.046, V -0.391 ± 0.026, W -0.339 ± 0.034, Y -0.242 ± 0.056
G14: A -0.41 ± 0.034, C -0.34 ± 0.036, E -0.225 ± 0.034, F -1.06 ± 0.13, H -0.468 ± 0.1, I -0.922 ± 0.13, K -0.264 ± 0.045, L -0.579 ± 0.031, M -0.421 ± 0.043, Q -0.196 ± 0.047, R -0.3 ± 0.025, S -0.005 ± 0.027, V -0.895 ± 0.053, W -0.986 ± 0.1, Y -1.04 ± 0.11
L15: A -0.652 ± 0.034, C -0.552 ± 0.059, D -0.702 ± 0.05, E -0.371 ± 0.027, G -0.675 ± 0.044, H -0.781 ± 0.067, I -0.446 ± 0.046, K -0.48 ± 0.032, N -0.512 ± 0.051, P -0.712 ± 0.043, Q -0.164 ± 0.035, R -0.535 ± 0.037, S -0.539 ± 0.031, T -0.427 ± 0.032, V -0.42 ± 0.027, W -0.266 ± 0.04, Y -0.636 ± 0.067
D16: A -0.408 ± 0.034, C -0.72 ± 0.041, E -0.266 ± 0.044, F -0.512 ± 0.031, G -0.466 ± 0.028, H -0.358 ± 0.033, I -0.615 ± 0.038, K -0.632 ± 0.038, L -0.702 ± 0.035, M -0.669 ± 0.056, N -0.311 ± 0.033, P -0.047 ± 0.026, Q -0.293 ± 0.042, R -0.631 ± 0.025, S -0.402 ± 0.022, V -0.675 ± 0.032, W -0.527 ± 0.031, Y -0.667 ± 0.035
D17: A -0.137 ± 0.025, C -0.06 ± 0.063, E -0.018 ± 0.037, F -0.181 ± 0.076, G -0.104 ± 0.032, I -0.4 ± 0.043, K -0.186 ± 0.041, L -0.446 ± 0.027, M -0.268 ± 0.035, N -0.075 ± 0.057, P -0.051 ± 0.031, Q -0.091 ± 0.038, R -0.184 ± 0.025, V -0.359 ± 0.028, W -0.497 ± 0.045, Y -0.203 ± 0.054
C18: D 0.006 ± 0.043, F -0.823 ± 0.077, G -0.182 ± 0.026, I -0.439 ± 0.061, K -0.301 ± 0.047, L -0.885 ± 0.049, M -0.442 ± 0.042, N -0.132 ± 0.045, P -0.239 ± 0.033, Q -0.124 ± 0.039, R -0.314 ± 0.032, S -0.024 ± 0.022, T -0.221 ± 0.04, V -0.118 ± 0.024, W -0.991 ± 0.069, Y -0.877 ± 0.061
L19: A -0.652 ± 0.033, C -0.244 ± 0.034, D -0.608 ± 0.042, E -0.74 ± 0.049, F -0.548 ± 0.052, G -0.68 ± 0.027, H -0.568 ± 0.061, I -0.102 ± 0.066, M -0.2 ± 0.044, N -0.593 ± 0.054, P -0.602 ± 0.044, Q -0.604 ± 0.047, R -0.763 ± 0.036, S -0.642 ± 0.037, T -0.508 ± 0.036, V -0.112 ± 0.026, W -0.936 ± 0.06, Y -0.816 ± 0.085
Q20: A -0.177 ± 0.028, C -0.325 ± 0.042, D -0.259 ± 0.033, E -0.31 ± 0.043, F -0.179 ± 0.039, G -0.152 ± 0.023, H 0.049 ± 0.032, I -0.247 ± 0.063, K -0.148 ± 0.025, L -0.121 ± 0.023, M -0.17 ± 0.029, N -0.117 ± 0.043, P -0.805 ± 0.051, R -0.214 ± 0.024, S -0.148 ± 0.024, W -0.133 ± 0.031, Y -0.204 ± 0.042
Q21: C -0.022 ± 0.048, D -0.095 ± 0.035, E -0.076 ± 0.037, F -0.539 ± 0.041, G -0.032 ± 0.03, H -0.257 ± 0.04, I -0.088 ± 0.043, K -0.204 ± 0.039, L -0.275 ± 0.025, M -0.102 ± 0.032, N -0.4 ± 0.041, P 0.038 ± 0.035, R -0.144 ± 0.026, S -0.118 ± 0.024, V -0.072 ± 0.024, W -0.933 ± 0.062, Y -0.459 ± 0.066
Y22: A -0.863 ± 0.035, D -0.571 ± 0.037, E -0.753 ± 0.06, G -0.702 ± 0.027, H -0.542 ± 0.057, I -0.834 ± 0.085, K -0.578 ± 0.091, L -0.899 ± 0.053, N -0.747 ± 0.062, P -0.753 ± 0.08, Q -0.636 ± 0.062, R -0.728 ± 0.035, S -0.742 ± 0.043, T -0.653 ± 0.035, V -0.806 ± 0.034, W -0.632 ± 0.06
I23: A 0.006 ± 0.027, C -0.014 ± 0.035, D -0.698 ± 0.07, E -0.412 ± 0.036, F -0.765 ± 0.092, G -0.344 ± 0.024, H -0.393 ± 0.082, K -0.361 ± 0.058, L -0.163 ± 0.028, M -0.34 ± 0.05, N -0.475 ± 0.044, P -0.673 ± 0.059, Q -0.378 ± 0.044, R -0.18 ± 0.021, S -0.247 ± 0.029, V -0.008 ± 0.023, W -0.313 ± 0.033, Y -0.447 ± 0.053
N25: A -0.007 ± 0.033, C -0.066 ± 0.03, D -0.08 ± 0.047, E -0.168 ± 0.037, F -0.078 ± 0.048, G -0.139 ± 0.03, H -0.055 ± 0.046, I -0.088 ± 0.083, K -0.258 ± 0.039, L -0.089 ± 0.026, M -0.014 ± 0.045, P -0.307 ± 0.033, Q -0.133 ± 0.033, S -0.05 ± 0.028, W -0.443 ± 0.03, Y -0.036 ± 0.084
F26: A -0.824 ± 0.041, G -0.727 ± 0.035, H -0.929 ± 0.081, I -0.356 ± 0.12, K -0.852 ± 0.027, M -0.709 ± 0.062, N -0.893 ± 0.13, P -0.592 ± 0.063, Q -0.772 ± 0.05, R -0.867 ± 0.039, S -0.779 ± 0.025, T -0.774 ± 0.069, V -0.485 ± 0.027, W -0.785 ± 0.052, Y -0.908 ± 0.09
E27: A -0.075 ± 0.029, C -0.406 ± 0.038, D -0.248 ± 0.041, F -0.47 ± 0.16, G -0.514 ± 0.026, H -0.376 ± 0.054, I -0.436 ± 0.17, L -0.207 ± 0.03, M -0.205 ± 0.058, N -0.535 ± 0.047, P -0.703 ± 0.065, Q -0.101 ± 0.038, R -0.173 ± 0.023, S -0.258 ± 0.03, T -0.197 ± 0.033, V -0.261 ± 0.027, W -0.311 ± 0.034, Y -0.316 ± 0.079
R28: A -0.052 ± 0.026, D -0.043 ± 0.052, E -0.1 ± 0.043, F -0.453 ± 0.1, G -0.262 ± 0.031, I -0.099 ± 0.063, K -0.063 ± 0.033, L -0.15 ± 0.023, M -0.094 ± 0.03, N -0.067 ± 0.051, S -0.056 ± 0.026, T -0.058 ± 0.032, V -0.159 ± 0.031, W -0.638 ± 0.044, Y -0.28 ± 0.069
E29: F -0.148 ± 0.036, G -0.04 ± 0.029, H 0.003 ± 0.044
